Laboratory results as given in paper PMC7948495, “The flexible N-terminus of BchL autoinhibits activity through interaction with its [4Fe-4S] cluster and released upon ATP binding” (The Journal of Biological Chemistry, 2020).

Target: the molecule itself
Assay: crystal structure; nucleotide-free BchL crystallised anaerobically at 15 °C by vapor diffusion; 100 μM dimeric BchL in 100 mM Hepes pH 7.5, 150 mM NaCl, 10% glycerol, 1.7 mM dithionite; well 0.6 M NaCl, 0.1 M MES:NaOH pH 6.5, 20% PEG 4000; 2.6 Å

B1: BchL (L-protein of dark-operative protochlorophyllide oxidoreductase, DPOR) from Rhodobacter sphaeroides (enzyme, UniProt Q9RFD6 1-297, looked up)
chain: MSPKDLTIPTGADGEGSVQVHLDEADKITGAKVFAVYGKGGIGKSTTSSNLSAAFSILGKRVLQIGCDPKHDSTFTLTGSLVPTVIDVLKDVDFHPEELRPEDFVFEGFNGVMCVEAGGPPAGTGCGGYVVGQTVKLLKQHHLLDDTDVVIFDVLGDVVCGGFAAPLQHADQAVVVTANDFDSIYAMNRIIAAVQAKSKNYKVRLAGCVANRSRATDEVDRFCKETNFRRLAHMPDLDAIRRSRLKKKTLFEMDEDQDVLAARAEYIRLAESLWRGLDPIDPHSLPDRDIFELLGFD
notes: BchL, Rhodobacter sphaeroides; coding region PCR-amplified from genomic DNA and cloned into pRSF-Duet 1 or pET-Duet 1; a TEV protease site follows the His tag; Homodimer with one [4Fe-4S] cluster at the dimer interface, ligated by two cysteines from each subunit; also called WT BchL
Does B1 bind?
Result: binds
